B1: OSTN: recombinant human osteocrin protein; a secreted protein produced by cells of the osteoblast lineage (protein, listed as Homo sapiens)
chain: MLDWRLASAHFILAVTLTLWSSGKVLSVDVTTTEAFDSGVIDVQSTPTVREEKSATDLTAKLLLLDELVSLENDVIETKKKRSFSGFGSPLDRLSAGSVDHKGKQRKVVDHPKRRFGIPMDRIGRNRLSNSRG
B2: BDNF: a neuronal activity-regulated secreted factor (protein, UniProt P23560 19-247, looked up)
Neurotrophic factor BDNF …: APMKEANIRGQGGLAYPGVRTHGTLESVNGPKAGSRGLTSLADTFEHVIEELLDEDQKVRPNEENNKDADLYTSRVMLSSQVPLEPPLLFLLEEYKNYLDAANMSMRVRRHSDPARRGELSVCDSISEWVTAADKKTAVDMSGGTVTVLEKVPVSKGQLKQYFYETKCNPMGYTKEGCRGIDKRHWNSQCRTTQSYVRALTMDSKKRIGWRFIRIDTSCVCTLTIKRGR

What was measured:
Format in all cases: cell-based
[1] = test system: human neurons; test: neuronal survival assay: number of MAP2 positive cells; settings: about 80,000 to about 130,000 cells/cm^2, where neighboring neurons could provide trophic support
Experimental: FIGS. 4A-4C are experimental data showing that osteocrin promotes human neuronal survival. FIGS. 4A-4B are fluorescent images showing culture of primary human neurons with or without recombinant OSTN. In FIGS. 4A-4B, primary human neurons were cultured for 10 days in vitro with and without recombinant OSTN (˜50 ng/ml), fixed and immunostained with neuronal marker MAP2 and nuclear marker DAPI. FIG. 4C is a quantitative bar graph showing the number of MAP2 positive neurons per measured area at DIV10 in human neuronal cultures with or without recombinant OSTN. The data are represented as mean±SEM. As used herein throughout the specification, the abbreviation “DIV” stands for Day In Vitro, i.e., the number of days neurons have grown in culture.
As presented herein, the inventors discovered OSTN as a human-specific activity-regulated secreted molecule. […] Neurons were grown, e.g., at a density of about 40,000 cells/cm^2, in the presence or absence of OSTN (e.g., ˜50 ng/ml) for a period of time, e.g., about 6 days between DIV4 to DIV10. After the period of time (e.g., about 6 days), samples were fixed and stained for dendritic and/or nuclear markers (FIGS. 4A-4B). Neuronal survival was assayed, for example, by quantifying the number of MAP2 positive cells after the neurons were cultured with or without OSTN for a pre-determined period of time (e.g., detected at DIV10). […]

[2] = test system: human primary neuronal cultures; test: neuronal connectivity assay: human primary neuronal cultures fixed and stained for dendritic and synaptic markers
Experimental: FIGS. 3A-3E are experimental data showing that osteocrin promotes human neuronal connectivity. FIGS. 3A-3D are fluorescent images of primary human neurons fixed and immunostained with neuronal and synaptic markers, e.g., microtubule-associated protein 2 (MAP2), postsynaptic density protein-95 (PSD95) and synapsin after cultured for about 10 days in vitro with and without recombinant OSTN (˜50 ng/mL). […] FIG. 3E is a bar graph showing quantification results of excitatory synapse number in human neuronal cultures with increasing concentrations (˜0.5-˜50 ng/mL) of recombinant OSTN. In particular, the human neuronal cultures were treated with recombinant OSTN at a concentration of ˜0.5 ng/mL, ˜5 ng/mL, or ˜50 ng/mL. The data are represented as mean±SEM from n=5.
No role has previously been described for OSTN in nervous system development or particularly human nervous system development; however, OSTN has been reported to be secreted from bone-forming cells to promote the proliferation of bone precursors. In order to assess the roles of OSTN in human neuronal function, human primary neuronal cultures were treated with increasing concentrations of an osteocrin-inducing agent, e.g., but not limited to, a recombinant human OSTN protein. After about 6 days, samples were fixed and stained for neuronal markers, e.g., dendritic and/or synaptic markers, to examine effects on neuronal connectivity (FIGS. 3A-3D). Neuronal excitatory synaptic connections can be assayed by any methods known in the art, e.g., by quantifying the density of closely apposed puncta labeling pre- and post-synaptic markers along neuronal dendrites.

[3] = test system: primary human neurons; test: human axonal growth assay in microfluidic chambers
Experimental: FIGS. 5A-5G are experimental data showing that osteocrin promotes human axonal growth. FIG. 5A is a schematic diagram of microfluidic chambers, e.g., for use in a human axonal growth assay. The bracket denotes the area where images were approximately acquired. In FIGS. 5B-5E, primary human neurons were cultured for 21 days in vitro in the microfluidic chamber with (FIG. 5C and FIG. 5E) and without (FIG. 5B and FIG. 5D) recombinant OSTN (˜100 ng/ml). FIGS. 5B-5C are brightfield images of axons imaged live by a bright-field microscope. FIGS. 5D-5E are fluorescent images of axons fixed and immunostained with axonal marker Neurofilament (NF). FIG. 5F is a quantitative bar graph showing axonal length extension of OSTN-treated neurons, normalized to the control experiment. FIG. 5G is a quantitative bar graph showing the number of MAP2-positive neurons per measured area inside the chamber. The data are represented as mean±SEM.
To assess the effect of OSTN on axonal outgrowth, a human axonal growth assay was developed by using microfluidic chambers (e.g., obtained from Xona Microfluidics, Temecula, Calif.) (FIG. 5A). In this assay, primary human neurons were seeded in the presence or absence of OSTN into the microfluidic chambers and cultured for a sufficient period of time to allow their axons grow through microchannels that were designed to be small enough to only allow axons, not dendrites, to pass through. For example, after about 21 days, axons were imaged both live (FIGS. 5B-5C) and after stained with an axonal marker, e.g., an anti-neurofilament antibody (FIGS. 5D-5E). Human axons grew slowly in the absence of OSTN and at DIV21 only few axonal processes were visible (FIGS. 5B and 5D). […] These findings shown that human-specific activity-regulated factor OSTN is a regulator of the axonal growth in human neurons.

[4] = test system: osteocrin expression; test: induction of osteocrin expression in human cultures; settings: addition to human cultures
[5] = recombinant OSTN ~50 ng/mL, about 10 days in vitro

Molecule	significant increase in neuronal survival at standard or higher densities [1]	dendritic density following OSTN treatment ([2]; data not shown)	total dendritic length following OSTN treatment ([2]; data not shown)	expression of PSD95 and synapsin (immunostaining) compared to control neurons [2, 5]	network of microtubules (MAP2 immunostaining) compared to control neurons [2, 5]	increase in excitatory synapse density as compared to mock-treated controls ([2]; recombinant human OSTN protein, increasing concentrations (~0.5-~50 ng/mL), after about 6 days, closely apposed pre- and post-synaptic puncta along dendrites)	number of neuronal cells (MAP2-positive) in the chambers with OSTN treatment ([3]; recombinant OSTN ~100 ng/ml, DIV21)	axonal growth in the presence of OSTN ([3]; recombinant OSTN ~100 ng/ml, about 21 days in vitro, imaged live and neurofilament stained)	increase in axonal growth of human neurons as compared to neural cells without treatment of OSTN ([3]; summary statement in the description)	effect on induction of osteocrin expression [4]
B1	not observed	Increases were also observed	Increases were also observed	expressed higher levels of PSD95 and synapsins	formed a denser network of microtubules	at least 3 fold	did not appear to change	neurons grow axons of dramatic lengths and complexities	at least 2 fold	–
B2	–	–	–	–	–	–	–	–	–	does not have any significant effect

— patent US20150359849A1, “METHODS OF INCREASING NEURONAL CONNECTIVITY AND/OR TREATING A NEURODEGENERATIVE CONDITION” (PRESIDENT AND FELLOWS OF HARVARD COLLEGE, priority 2013, published 2015)
